{
  "source": "paper PMC11889585",
  "about": "“Characterization of the putative yeast mitochondrial triacylglycerol lipase Tgl2” (The Journal of Biological Chemistry, 2025)",
  "binders": {"B1": {"name": "N terminally hemagglutinin (HA) tagged Tgl2 (natural protein, S. cerevisiae, UniProt P54857 1-326, looked up)", "chain": "MKNDNKANDIIIDSVKVPDSYKPPKNPIVFCHGLSGFDKLILIPSVFHLTNLISNSIVHNMAENFMQDDEDKSDNKYTNLLEIEYWIGVKKFLQSKGCTVITTKVPGFGSIEERAMALDAQLQKEVKKIESKDKRHSLNLIAHSMGGLDCRYLICNIKNRNYDILSLTTISTPHRGSEMADYVVDLFENLNALRVSQKILPICFYQLTTAYMKYFNLVTPNSPKVSYFSYGCSFVPKWYNVFCTPWKIVYERSKGCPNDGLVTINSSKWGEYRGTLKDMDHLDVINWKNKLQDDWSKFFRTTTVGEKVDILNFYLKITDDLARKGF", "notes": "Tgl2, putative mitochondrial triacylglycerol lipase of the intermembrane space, S. cerevisiae; also called HA-Tgl2; native-like HA-Tgl2; source: S. cerevisiae (tgl2Δ, yme1Δ and other deletion strains), overexpressed from plasmid pYX142; in whole cell lysate, crude or isolated mitochondria; not shown: HA, N-terminal, kept"}},
  "target": "T1, N terminally FLAG-tagged Tgl2 (S. cerevisiae, UniProt P54857 1-326)",
  "T1 construct": "Tgl2, S. cerevisiae; FLAG tag inserted at the N terminus of the ORF of Tgl2; the printed primer puts Met-FLAG directly before the second codon (AAA) of Tgl2; also called FLAG-Tgl2; source: S. cerevisiae tgl2Δ cells, coexpressed with HA-Tgl2 from plasmid pYX122; in solubilised mitochondria; not shown: FLAG, N-terminal, kept",
  "T1 sequence (looked up)": "B1 chain",
  "assay": "native gel or EMSA; antibody shift assay: digitonin-solubilised mitochondria with HA-Tgl2 and FLAG-Tgl2 incubated with 0, 0.5 or 1 μl anti-HA antibody on ice for 30 min, BN-PAGE, immunodecoration with anti-FLAG",
  "details": "partners not purified",
  "data": [
    {"binder": "B1", "values": [
      {"measurement": "stoichiometry N", "value": "≥ 2"}
    ]}
  ]
}
